This is an account of results in article PMC4364042 (Science (New York, N.Y.), 2014).

Test [1] concerns the target E-cadherin/β-catenin complex (Mus musculus) (UniProt P09803). The following applies: cited from earlier work.
Test [2] concerns the target T1, Dr αE-catenin (Danio rerio (zebrafish), UniProt Q9PVF8 1-907).
T1 sequence (looked up): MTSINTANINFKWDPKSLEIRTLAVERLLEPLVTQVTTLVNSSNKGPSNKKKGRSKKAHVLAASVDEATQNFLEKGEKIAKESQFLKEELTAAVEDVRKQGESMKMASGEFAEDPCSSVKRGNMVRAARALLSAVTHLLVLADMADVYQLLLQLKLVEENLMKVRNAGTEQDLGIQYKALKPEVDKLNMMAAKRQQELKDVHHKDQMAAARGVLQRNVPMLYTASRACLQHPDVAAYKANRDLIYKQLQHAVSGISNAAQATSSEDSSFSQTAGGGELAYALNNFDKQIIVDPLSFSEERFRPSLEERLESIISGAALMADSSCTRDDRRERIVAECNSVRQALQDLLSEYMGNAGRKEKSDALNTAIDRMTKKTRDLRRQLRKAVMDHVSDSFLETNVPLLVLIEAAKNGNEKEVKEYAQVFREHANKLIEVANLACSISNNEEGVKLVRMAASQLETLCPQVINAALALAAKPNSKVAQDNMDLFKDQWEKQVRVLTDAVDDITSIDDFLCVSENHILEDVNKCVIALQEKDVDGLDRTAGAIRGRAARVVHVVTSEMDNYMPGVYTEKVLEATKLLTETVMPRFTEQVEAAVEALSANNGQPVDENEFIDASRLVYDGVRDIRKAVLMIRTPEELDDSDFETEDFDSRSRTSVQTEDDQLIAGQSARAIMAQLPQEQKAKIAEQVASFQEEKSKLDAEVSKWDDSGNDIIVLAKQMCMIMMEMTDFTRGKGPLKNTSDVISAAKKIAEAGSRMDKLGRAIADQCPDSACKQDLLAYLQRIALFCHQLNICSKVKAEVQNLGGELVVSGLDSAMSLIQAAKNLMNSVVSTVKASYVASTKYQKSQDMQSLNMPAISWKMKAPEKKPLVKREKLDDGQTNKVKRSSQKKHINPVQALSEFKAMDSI
Put plainly: reconstitution of the complex on the coverslip, read by optical trap.

Chain of E-cadherin/β-catenin complex (Mus musculus) (P09803 157-884, chain 1 of 2): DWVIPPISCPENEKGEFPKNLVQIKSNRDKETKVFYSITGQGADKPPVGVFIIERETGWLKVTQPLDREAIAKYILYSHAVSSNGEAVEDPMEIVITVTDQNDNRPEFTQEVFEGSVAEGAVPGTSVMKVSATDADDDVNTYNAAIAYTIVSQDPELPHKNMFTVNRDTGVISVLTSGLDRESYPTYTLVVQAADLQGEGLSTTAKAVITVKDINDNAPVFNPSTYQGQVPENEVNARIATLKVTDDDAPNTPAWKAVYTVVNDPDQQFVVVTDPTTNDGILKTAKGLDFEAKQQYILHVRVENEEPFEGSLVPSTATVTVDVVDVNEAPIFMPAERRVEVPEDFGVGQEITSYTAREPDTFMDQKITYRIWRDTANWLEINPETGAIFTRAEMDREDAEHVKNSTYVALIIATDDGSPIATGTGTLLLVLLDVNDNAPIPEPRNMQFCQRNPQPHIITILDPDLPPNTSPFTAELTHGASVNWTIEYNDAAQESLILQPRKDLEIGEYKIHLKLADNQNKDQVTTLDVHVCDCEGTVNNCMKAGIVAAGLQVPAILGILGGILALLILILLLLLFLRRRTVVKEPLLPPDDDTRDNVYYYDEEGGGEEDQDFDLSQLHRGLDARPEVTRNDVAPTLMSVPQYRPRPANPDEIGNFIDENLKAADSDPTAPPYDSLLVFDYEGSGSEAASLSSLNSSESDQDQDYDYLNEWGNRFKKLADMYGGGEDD
Chain of E-cadherin/β-catenin complex (Mus musculus) (Q02248 2-781, chain 2 of 2, further chain): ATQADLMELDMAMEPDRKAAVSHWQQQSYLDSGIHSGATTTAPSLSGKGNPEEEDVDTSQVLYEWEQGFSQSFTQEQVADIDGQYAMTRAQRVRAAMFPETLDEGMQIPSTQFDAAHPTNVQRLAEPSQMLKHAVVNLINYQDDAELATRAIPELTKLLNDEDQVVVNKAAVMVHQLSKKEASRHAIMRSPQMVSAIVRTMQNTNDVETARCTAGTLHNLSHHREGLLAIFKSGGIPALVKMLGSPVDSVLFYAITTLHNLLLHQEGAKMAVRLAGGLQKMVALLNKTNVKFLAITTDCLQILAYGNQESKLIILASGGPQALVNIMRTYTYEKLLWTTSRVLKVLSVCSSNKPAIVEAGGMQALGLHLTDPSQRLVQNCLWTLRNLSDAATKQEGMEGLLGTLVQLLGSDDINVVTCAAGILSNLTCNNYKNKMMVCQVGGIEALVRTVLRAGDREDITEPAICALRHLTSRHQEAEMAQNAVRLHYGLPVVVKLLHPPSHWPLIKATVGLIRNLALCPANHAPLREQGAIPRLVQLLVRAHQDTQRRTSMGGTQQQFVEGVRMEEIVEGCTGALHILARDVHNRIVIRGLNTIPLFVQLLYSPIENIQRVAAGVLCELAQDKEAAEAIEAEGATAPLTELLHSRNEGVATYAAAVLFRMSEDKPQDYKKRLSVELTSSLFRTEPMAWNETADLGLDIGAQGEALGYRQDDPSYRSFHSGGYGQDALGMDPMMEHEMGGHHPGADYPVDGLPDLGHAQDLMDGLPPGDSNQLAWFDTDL

What is called Kd is the constant that tells how readily two partners part at equilibrium. With αE-catenin (from UniProt P26231), in test [1], the Kd is 1 nM.

B1: Dr β-catenin (natural protein, Danio rerio (zebrafish), UniProt F1QGH7 1-780, looked up)
chain: MATQSDLMELEMAMDPDRKAAVSHWQQQSYLDSGIHSGATTTAPSLSGKGNPEDDDVDNQVLYEWEQGFNQSFNQEQVADIDGQYAMTRAQRVRAAMFPETLDEGMQIPSTQFDSAHPTNVQRLAEPSQMLKHAVVNLINYQDDAELATRAIPELTKLLNDEDQVVVNKAAVMVHQLSKKEASRHAIMRSPQMVSAIVRTMQNTNDVETARCTSGTLHNLSHHREGLLAIFKSGGIPALVKMLGSPVDSVLFYAITTLHNLLLHQEGAKMAVRLAGGLQKMVALLNKTNVKFLAITTDCLQILAYGNQESKLIILASGGPQALVNIMRTYTYEKLLWTTSRVLKVLSVCSSNKPAIVEAGGMQALGLHLTDPSQRLVQNCLWTLRNLSDAATKQEGMEGLLGTLVQLLGSDDINVVTCAAGILSNLTCNNYKNKMMVCQVGGIEALVRTVLRAGDREDITEPAICALRHLTSRHQDAEMAQNAVRLHYGLPVVVKLLHPPSHWPLIKATVGLIRNLALCPANHAPLREQGAIPRLVQLLVRAHQDTQRRTSMGGTQQQFVEGVRMEEIVEGCTGALHILARDIHNRIVIRGLNTIPLFVQLLYSPIENIQRVAAGVLCELAQDKEAAEAIEAEGATAPLTELLHSRNEGVATYAAAVLFRMSEDKPQDYKKRLSVELTSSLFRTEPMTWNETGDLGLDIGAQGEPLGYRQDDPSYRSFHSGGYGQDAMGMDPMMEHEMAGHHPGPDYPVDGLPDLGHTQDLIDGLPPGDSNQLAWFDTDL
On to B1, for which the binding result in test [2] is “binds”.
